Laboratory results taken from the supplement of paper PMC11908140.

B1: library; numbered along this chain (parent)
chain: MRKPRAAVGSGHRKQAASQEGRQKHAKNNSQAKPSACDGLARQPEEVVLQASVSSYHLFRDVAEVTAFRGSLLSWYDQEKRDLPWRRRAEDEMDLDRRAYAVWVSEVMLQQTQVATVINYYTGWMQKWPTLQDLASASLEEVNQLWAGLGYYSRGRRLQEGARKVVEELGGHMPRTAETLQQLLPGVGRYTAGAIASIAFGQATGVVDGNVARVLCRVRAIGADPSSTLVSQQLWGLAQQLVDPARPGDFNQAAMELGATVCTPQRPLCSQCPVESLCRARQRVEQEQLLASGSLSGSPDVEECAPNTGQCHLCLPPSEPWDQTLGVVNFPRKASRKPPREESSATCVLEQPGALGAQILLVQRPNSGLLAGLWEFPSVTWEPSEQLQRKALLQELQRWAGPLPATHLRHLGEVVHTFSHIKLTYQVYGLALEGQTPVTTVPPGARWLTQEEFHTAAVSTAMKKVFRVYQGQQPGTCMGSKRSQVSSPCSRKKPRMGQQVLDNFFRSHISTDAHSLNSAAQ

Variants of: B1
Experiment: 8OG:A repair function score (normalized; synonymous = 0, nonsense = -1) (normalized log-likelihood score); higher = more repair activity (WT-like)
Settings: with 8OG:A DNA repair reporter (GFP) in HEK-293 MUTYH KO cells
Method in brief: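 Lentiviral MUTYH cDNA NNN codon-scan libraries in HEK-293 MUTYH knockout cells (10 pg/ml doxycycline) were co-transfected with an 8OG:A GFP repair reporter plus mCherry. At 72 h, viable mCherry+ cells were sorted into GFP+ (repair) and GFP− bins, three replicates per tile, then tile amplicons were sequenced. Per-tile Rosace fitness scores became a normalized repair function score anchored on synonymous and nonsense distributions. Synonymous medians were set to 0 and nonsense to -1; variants under 300 counts per million at the start were removed.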

8OG:A repair function score of substitutions, site by site:
R279: G -0.388; V -0.344; T -0.339; A -0.278; C -0.251; Q -0.155; F -0.277; Y -0.151; E -0.233; L -0.146; K -0.0521; W -0.139; P -1.12; M -0.178; S -0.377; D -0.718; N -0.123; H -0.0508; I -0.172
P273: Q -0.798; L -0.946; N -0.903; T -0.453; I -0.662; C -0.28; K -0.708; G -0.625; E -0.952; R -0.526; D -1.05; V -0.419; M -1.05; Y -0.661; A -0.171; S -0.426; W -0.748; F -0.844; H -0.569
P267: A -0.131; C -0.372; R -1.04; H -0.87; L -1.03; F -0.919; T -0.202; M -0.774; Q -0.679; N -0.863; Y -0.838; D -1.1; I -0.711; K -1.06; W -1.06; S -0.361; G -0.225; V -0.195; E -0.836
V274: P -1.23; H -0.563; Y -0.549; E -0.423; T -0.241; A -0.219; C -0.176; R -0.994; D -1.01; N -0.714; L -0.0284; M -0.0354; Q -0.544; W -0.16; K -1.03; I -0.0406; G -0.676; F -0.303; S -0.589
S270: C -0.0715; V -0.0277; E -0.0683; A -0.0829; Q 0.028; T -0.0207; I -0.0239; N -0.0408; G -0.0285; D -0.0528; R -0.00848; Y -0.036; H 0.0198; F -0.0287; P -0.0287; M -0.0147; K -0.0187; W -0.0132; L -0.0471
A280: C -0.398; N -0.632; P -0.965; M -0.582; R -0.814; W -0.57; Y -0.51; V -0.0812; D -0.649; Q -0.761; S -0.172; G -0.137; L -0.262; I -0.189; E -0.713; H -0.731; F -0.597; K -0.812; T -0.13
R266: F -0.104; C -0.085; K 0.00702; G -0.111; Q -0.165; Y -0.102; V -0.119; E -0.22; N -0.0656; P -0.449; W -0.135; D -0.269; H 0.00581; A -0.0544; T -0.142; L -0.152; I -0.164; S -0.0823; M -0.0578
R281: E -0.484; A -0.0465; V -0.131; C -0.173; M -0.0676; Q -0.113; S -0.126; P -0.443; Y -0.0264; L -0.166; D -0.447; H 0.00153; T -0.16; K -0.09; G -0.264; F -0.126; N -0.0901; I -0.176; W -0.105
Q282: C -0.0445; G -0.0596; D -0.125; F -0.021; A -0.0281; H -0.0165; I -0.0327; E -0.0248
C269: E -1.16; P -1.04; N -1.31; F -1.16; S -1.28; W -1.4; G -1.26; H -0.96; V -1.27; T -1.06; Y -1.12; A -1.29; Q -1.19; L -1.21; D -0.992; I -1.26; M -1.18; K -1.17; R -1.15
L277: Q -0.0714; F 0.00162; V -0.0751; C -0.0293; A -0.125; E -0.204; M 0.00781; D -0.199; S -0.022; W -0.00135; K -0.17; Y 0.014; T -0.115; R -0.152; H -0.0518; P -0.383; I -0.036; N -0.0739
Q265: T 0.00721; R 0.00654; N -0.0302; Y -0.00929; C -0.0499; D -0.156; I -0.0274; E -0.243; V -0.0775; G -0.0557; W -0.0937; M -0.0825; F -0.022; A -0.0137; L -0.0663; P -0.252; K -0.0319; S -0.0301; H 0.0203
Q271: G -0.0498; Y -0.0212; A 0.0211; F -0.0282; K 0.0343; L -0.00321; S -0.0229; C -0.0175; E -0.00693; W -0.0164; I -0.0397; N 0.0195; T -0.00163; R 0.0206; M -0.0166; D -0.0548; P -0.311; V 0.0124; H -0.0231
P264: Y -0.087; T -0.066; W -0.113; V -0.0712; S -0.0872
C278: T -1.15; E -0.92; W -1.05; D -1.08; H -1.09; F -1.07; N -1.1; R -1.27; M -1.52; P -1.2; Y -0.972; I -1.03; S -1.07; A -1.11; G -1.17; V -1.16; Q -1.14; L -1.1; K -1.26
S276: V -0.0409; R -0.0136; N -0.00423; H 0.0172; E -0.0386; W -0.0968; M -0.0454; Y 0.0309; G -0.00134; K 0.0174; T 0.0017; A 0.0102; C -0.133; L -0.0125; F -0.0215; D 0.00885; P -0.0133; Q 0.0194; I -0.0404
C272: Y -0.982; T -1.24; S -1.17; A -1.16; N -1.21; L -1.26; W -1.09; I -1.3; V -1.12; G -1.24; M -1.19; H -1.32; K -1.41; E -1.29; P -1.26; Q -1.09; D -1.28; R -1.35; F -1.42
L268: E -0.133; A -0.000124; D 0.0003; W -0.0985; V -0.0404; Y -0.046; S -0.00947; N -0.0234; K 0.0167; C -0.13; G -0.0658; Q -0.0131; F 0.00448; R 0.00479; M 0.0171; I -0.0493; P -0.285; T 0.012
E275: K 0.00478; R 0.00881; M 0.00516; L -0.00764; Q 0.0396; T 0.0286; S 0.00561; I -0.0114; P -0.152; W -0.0767; Y -0.0195; D -0.113; N -0.00161; H 0.015; C -0.0803; A 0.0221; V 0.0153; F 0.0124; G -0.00445
